Results from PMC5378391, “Maltose binding protein-fusion enhances the bioactivity of truncated forms of pig myostatin propeptide produced in E. coli” (PLoS ONE, 2017).

T1: Myostatin (MSTN) (UniProt O14793 267-375)
T1 sequence (looked up): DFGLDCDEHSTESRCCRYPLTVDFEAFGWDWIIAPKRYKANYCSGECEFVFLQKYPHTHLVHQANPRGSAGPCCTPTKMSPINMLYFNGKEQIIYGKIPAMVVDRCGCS


How the values were obtained:
[1] = biological target: Myostatin (MSTN) (UniProt O14793)
[2] = biological target: Pro23-98 (MBP removed by factor Xa) (pig) (UniProt O18831); experiment: non-reducing SDS-PAGE; samples boiled in SDS loading buffer without beta-mercaptoethanol (unreduced) or with it (reduced); 15% gel, Coomassie blue; can show only disulfide-linked dimers
[3] = biological target: Myostatin (MSTN) (UniProt O14793); remark: listed apart in the source
[4] = biological target: T1, Myostatin (MSTN); experiment: cell-based or functional assay
[5] = biological target: the molecule itself; experiment: non-reducing SDS-PAGE; samples boiled in SDS loading buffer without beta-mercaptoethanol (unreduced) or with it (reduced); 15% gel, Coomassie blue; can show only disulfide-linked dimers

Sequence of Pro42-175 (MBP removed by factor Xa) (O18831 42-175): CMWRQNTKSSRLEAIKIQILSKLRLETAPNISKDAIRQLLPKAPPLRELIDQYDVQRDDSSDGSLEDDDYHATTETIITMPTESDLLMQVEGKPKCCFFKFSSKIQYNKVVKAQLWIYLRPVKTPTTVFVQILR
Sequence of MBP-fused truncated pig MSTNpro containing residues 42-218 (O18831 42-218): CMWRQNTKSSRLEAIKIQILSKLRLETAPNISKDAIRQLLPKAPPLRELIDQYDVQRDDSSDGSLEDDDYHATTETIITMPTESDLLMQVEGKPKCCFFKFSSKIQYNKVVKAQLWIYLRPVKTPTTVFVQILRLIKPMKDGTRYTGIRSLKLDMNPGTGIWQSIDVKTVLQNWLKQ
Sequence of Pro23-98 (MBP removed by factor Xa) (O18831 23-98): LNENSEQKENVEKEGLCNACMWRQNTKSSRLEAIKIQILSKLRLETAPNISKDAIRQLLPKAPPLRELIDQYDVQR

| IC50 to suppress 1 nM MSTN activity, pGL3-(CAGA)12-luciferase reporter assay in HEK293 cells [1] | Molecule | other results |
| --- | --- | --- |
| 2.8 nM | Full sequence MBP-fused pig MSTNpro (metalloproteinase-resistant mutant) (domain or fragment) |  |
| 17.7 nM | MBP-fused truncated pig MSTNpro containing residues 42-115 (from UniProt O18831 42-115) (domain or fragment) |  |
| 2.7 nM | MBP-fused truncated pig MSTNpro containing residues 42-175 (from UniProt O18831 42-175) (domain or fragment) |  |
| 3.3 nM | MBP-fused truncated pig MSTNpro containing residues 42-218 (from UniProt O18831 42-218) (domain or fragment) |  |
|  | Pro23-98 (MBP removed by factor Xa) (from UniProt O18831 23-98) (domain or fragment) | stoichiometry N [2]: 2 |
|  | Pro42-175 (MBP removed by factor Xa) (from UniProt O18831 42-175) (domain or fragment) | IC50 to suppress 1 nM MSTN, (CAGA)12-luciferase reporter gene assay, after removal of MBP [3]: 44.9 nM |
|  | MBP-fused truncated pig MSTNpro containing residues 42-98 (domain or fragment, UniProt O18831 42-98, looked up) CMWRQNTKSSRLEAIKIQILSKLRLETAPNISKDAIRQLLPKAPPLRELIDQYDVQR | IC50 to suppress 1 nM MSTN activity, pGL3-(CAGA)12-luciferase reporter assay in HEK293 cells [4]: 24.1 nM |
|  | Pro42-98 (MBP removed by factor Xa) (domain or fragment, pig, UniProt O18831 42-98, looked up, Pig myostatin propeptide (MSTNpro), residues 42-98; Derived from m4; also called MBP-removed MSTNpro domain containing residues 42-98; source: E. coli K12TB1; MBP-Pro42-98 digested with factor Xa, soluble fraction of the digest / Superdex 75 fraction f16; not shown: MBP, N-terminal, cleaved) CMWRQNTKSSRLEAIKIQILSKLRLETAPNISKDAIRQLLPKAPPLRELIDQYDVQR | stoichiometry N [5]: 2 |
